Reference: paper PMC2488374, “Study of a Synthetic Human Olfactory Receptor 17-4: Expression and Purification from an Inducible Mammalian Cell Line” (PLoS ONE, 2008)

Biological target: the molecule itself
Test: SEC; immunoaffinity-purified hOR17-4 at 0.75 mg/ml on HiLoad 16/60 Superdex 200 in PBS + 0.2% w/v fos-choline-14, 1 ml/min; peak fractions analysed by SDS-PAGE and SYPRO-Ruby staining

B1: human olfactory receptor 17-4 with C-terminal GlyGly linker and rho1D4 tag (hOR17-4-GlyGly-rho1D4) (receptor, UniProt P34982 1-312, looked up)
chain: MDGGNQSEGSEFLLLGMSESPEQQRILFWMFLSMYLVTVVGNVLIILAISSDSRLHTPVYFFLANLSFTDLFFVTNTIPKMLVNLQSHNKAISYAGCLTQLYFLVSLVALDNLILAVMAYDRYVAICCPLHYTTAMSPKLCILLLSLCWVLSVLYGLIHTLLMTRVTFCGSRKIHYIFCEMYVLLRMACSNIQINHTVLIATGCFIFLIPFGFVIISYVLIIRAILRIPSVSKKYKAFSTCASHLGAVSLFYGTLCMVYLKPLHTYSVKDSVATVMYAVVTPMMNPFIYSLRNKDMHGALGRLLDKHFKRLT
notes: human olfactory receptor 17-4 (OR1D2), wild type, 312 amino acids; with GlyGly linker and rho1D4 tag the construct has 323 amino acids; Synthetic, human codon-optimised gene in pcDNA4/To; also called OR1D2; hOR17-4-rho
stoichiometry N: 2
